Reference: article PMC4981545 (Cell reports, 2016)

Columns and labels:
Assay in all cases: pull-down
[1] = biological target: T1, GST-tagged BPV-1 E2 (BE2), immobilized (bovine papillomavirus type 1 (BPV-1), UniProt P03122 1-410)
T1 sequence: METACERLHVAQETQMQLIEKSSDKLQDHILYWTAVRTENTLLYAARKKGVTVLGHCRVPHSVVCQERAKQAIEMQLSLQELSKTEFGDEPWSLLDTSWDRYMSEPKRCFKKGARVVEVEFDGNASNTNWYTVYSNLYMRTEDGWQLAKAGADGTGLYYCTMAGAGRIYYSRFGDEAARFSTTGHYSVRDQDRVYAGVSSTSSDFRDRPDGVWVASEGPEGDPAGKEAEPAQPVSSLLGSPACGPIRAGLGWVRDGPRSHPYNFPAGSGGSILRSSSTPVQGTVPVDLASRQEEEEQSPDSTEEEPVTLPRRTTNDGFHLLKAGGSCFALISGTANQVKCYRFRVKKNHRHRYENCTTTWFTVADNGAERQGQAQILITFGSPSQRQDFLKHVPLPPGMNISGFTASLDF

[2] = biological target: GST-tagged HPV-11 E2 (11E2), immobilized (HPV-11, UniProt P04015 1-367)
Sequence of GST-tagged HPV-11 E2 (11E2), immobilized (P04015 whole entry): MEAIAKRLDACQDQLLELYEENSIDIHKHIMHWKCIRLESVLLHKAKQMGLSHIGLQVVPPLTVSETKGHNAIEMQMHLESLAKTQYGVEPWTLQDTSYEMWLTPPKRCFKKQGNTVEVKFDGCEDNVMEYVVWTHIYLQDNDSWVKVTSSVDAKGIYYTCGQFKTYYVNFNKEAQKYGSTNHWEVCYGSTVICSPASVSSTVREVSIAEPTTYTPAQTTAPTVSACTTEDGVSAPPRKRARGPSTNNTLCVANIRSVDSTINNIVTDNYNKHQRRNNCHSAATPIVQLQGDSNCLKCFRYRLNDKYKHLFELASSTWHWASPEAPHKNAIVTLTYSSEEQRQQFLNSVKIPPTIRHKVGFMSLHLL

[3] = biological target: GST-tagged HPV-16 E2 (16E2), immobilized (HPV-16, UniProt P03120 1-365)
Sequence of GST-tagged HPV-16 E2 (16E2), immobilized (P03120 whole entry): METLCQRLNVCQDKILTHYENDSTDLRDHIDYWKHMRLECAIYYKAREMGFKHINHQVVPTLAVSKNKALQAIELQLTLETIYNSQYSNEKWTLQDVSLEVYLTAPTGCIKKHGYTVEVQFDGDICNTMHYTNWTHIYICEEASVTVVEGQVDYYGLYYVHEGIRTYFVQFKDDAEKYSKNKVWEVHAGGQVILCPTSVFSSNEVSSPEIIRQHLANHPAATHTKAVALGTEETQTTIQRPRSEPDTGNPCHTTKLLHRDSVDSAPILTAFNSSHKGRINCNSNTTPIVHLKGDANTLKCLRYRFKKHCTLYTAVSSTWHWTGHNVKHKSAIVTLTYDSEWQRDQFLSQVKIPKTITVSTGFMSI

[4] = biological target: GST-tagged HPV-18 E2 (18E2), immobilized (HPV-18, UniProt P06790 1-365)
Sequence of GST-tagged HPV-18 E2 (18E2), immobilized (P06790 whole entry): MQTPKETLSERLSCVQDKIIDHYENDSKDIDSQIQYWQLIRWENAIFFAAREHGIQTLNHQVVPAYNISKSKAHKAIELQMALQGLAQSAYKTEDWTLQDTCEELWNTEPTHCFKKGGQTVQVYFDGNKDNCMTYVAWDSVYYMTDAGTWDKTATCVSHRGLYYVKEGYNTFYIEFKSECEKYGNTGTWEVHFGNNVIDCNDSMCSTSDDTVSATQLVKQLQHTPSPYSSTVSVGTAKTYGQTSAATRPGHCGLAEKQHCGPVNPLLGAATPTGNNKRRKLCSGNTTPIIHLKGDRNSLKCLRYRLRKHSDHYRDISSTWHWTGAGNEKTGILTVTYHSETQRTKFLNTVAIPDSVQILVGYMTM

[5] = biological target: Sf9-PDID of BRD4 with S488 substituted to alanine (human, UniProt O60885 287-530, S488 to alanine)
[6] = biological target: Sf9-PDID of BRD4 with S492 substituted to alanine (human, UniProt O60885 287-530, S492 to alanine)
[7] = biological target: Sf9-PDID of BRD4 with S494 substituted to alanine (human, UniProt O60885 287-530, S494 to alanine)
[8] = biological target: Sf9-PDID of BRD4 with S498 substituted to alanine (human, UniProt O60885 287-530, S498 to alanine)
[9] = biological target: Sf9-PDID of BRD4 with S499 substituted to alanine (human, UniProt O60885 287-530, S499 to alanine)

Measured: binding result

B1: Sf9-BID of BRD4 (fragment 6) (domain or fragment, human, UniProt O60885 524-579, looked up)
chain: QLAALSQPQQNKPKKKEKDKKEKKKEKHKRKEEVEENKKSKAKEPPPKKTKKNNSS
binds: [1] | [2] | [3] | [4]

B2: Bac-expressed FLAG-tagged BID of BRD4 (aa 524–579, fragment c) (domain or fragment, human, UniProt O60885 524-579, looked up)
chain: B1 chain
binds: [1] | [2] | [3] | [4]

B3: GST-BID of BRD4 (domain or fragment, human, UniProt O60885 524-579, looked up)
chain: B1 chain
binds: [5] | [6] | [7] | [8] | [9]
